± gives the uncertainty stated by the source.
Assay: self-splicing fitness, log relative to wild type (ln ratio); higher = more splicing; Tetrahymena group I intron in knt gene, E. coli kanamycin selection, DiMSum; sequences stand for … in CUCUCU…GGAGGGAAAAGUUAUCAGGCAUGCACCUGGUAGCUAGUCUUUAAACCAAUAGAUUGCAUCGGUUUAAAAGGCAAGACCGUCAAAUUGCGGGAAAGGGGUCAACAGCCGUUCAGUACCAAGUCUCAGGGGAAACUUUGAGAUGGCCUUGCAAAGGGUAUGGUAAUAAGCUGACGGACAUGGUCCUAACCACGCAGCCAAGUCCUAAGUCAACAGAUCUUCUGUUGAUAUGGAUGCAGUUCACAGACUAAAUGUCGGUCGGGGAAGAUGUAUUCUUCUCAUAAGAUAUAGUCGGACCUCUCCUUAAUGGGAGCUAGCGGAUGAAGUGAUGCAACACUGGAGCCGCUGGGAACUAAUUUGUAUGCGAAAGUAUAUUGAUUAGUUUUGGAGUACUCGUGGUCG
Procedure, shortened: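 Fitness was computed with DiMSum as the error-weighted combination of replicate fold changes, kanamycin versus none, each normalised to wild type. The library randomised all eight intron nucleotides of the P1ex region, with the intron placed in the knt kanamycin-resistance gene on pET-22b(+) in E. coli BL21(DE3). Six replicate transformations were grown overnight at 37°C or 30°C on LB agar with or without 25 μg/mL kanamycin, plus 100 μg/mL carbenicillin, 50 μM IPTG and 0.2% rhamnose. Pooled colonies were amplicon-sequenced on an Illumina HiSeq 2500.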

| Sequence | self-splicing fitness (ln) (30 °C) | self-splicing fitness (ln) (37 °C) |
| --- | --- | --- |
| CAUGAGCAAUAUUACGUCGC | -3.59 ± 0.29 | -2.13 ± 0.42 |
| CAUGAGCAAUAUUACGUGGC | -3.55 ± 0.25 | -2.46 ± 0.24 |
| CAUGAGCAAUAUUACGUUAG | -1.86 ± 0.081 | -1.11 ± 0.082 |
| CAUUAGCAAUAUUACGACUG | -0.158 ± 0.079 | 0.262 ± 0.092 |
| CAUUAGCAAUAUUACGCAAG | -1.45 ± 0.1 | -0.813 ± 0.13 |
| CAUUAGCAAUAUUACGCAUG | -4.08 ± 0.46 | -3.16 ± 0.4 |
| CAUUAGCAAUAUUACGCGCC | -3.41 ± 0.32 | -2.26 ± 0.35 |
| CAUUAGCAAUAUUACGCGGA | -2.93 ± 0.23 | -1 ± 0.14 |
| CAUUAGCAAUAUUACGCUAC | -3.99 ± 0.4 | -2.13 ± 0.46 |
| CAUUAGCAAUAUUACGGAGC | -2.94 ± 0.4 | -2.04 ± 0.23 |
| CAUUAGCAAUAUUACGGAUU | -3.12 ± 0.2 | -1.23 ± 0.21 |
| CAUUAGCAAUAUUACGGGGG | -2.52 ± 0.21 | -1.19 ± 0.15 |
| CAUUAGCAAUAUUACGGGUU | -2.27 ± 0.11 | -0.829 ± 0.12 |
| CAUUAGCAAUAUUACGGUGU | -3.92 ± 0.2 | -3.76 ± 0.23 |
| CAUUAGCAAUAUUACGGUUA | -2.35 ± 0.28 | -0.486 ± 0.17 |
| CAUUAGCAAUAUUACGUAGA | -0.475 ± 0.11 | -1.51 ± 0.2 |
| CAUUAGCAAUAUUACGUCGC | -2.38 ± 0.32 |  |
| CAUUAGCAAUAUUACGUGAU | -3.57 ± 0.12 | -1.87 ± 0.1 |
| CAUUAGCAAUAUUACGUGGG | -3.46 ± 0.17 | -2.76 ± 0.21 |
| CAUUAGCAAUAUUACGUUAG | -0.927 ± 0.092 | -0.609 ± 0.1 |
| CAUUAGCAAUAUUACGUUGG | -2.05 ± 0.085 | -1.03 ± 0.1 |
| CAUUAGCAAUAUUACGUUUC | -2.39 ± 0.33 | -2.2 ± 0.32 |
| CCAAAGCAAUAUUACGAAGG | -3.61 ± 0.15 | -2.9 ± 0.3 |
| CCAAAGCAAUAUUACGACAA | -2.42 ± 0.27 | -2.54 ± 0.28 |
| CCAAAGCAAUAUUACGACUC | -2.53 ± 0.27 | -2.03 ± 0.43 |

| Sequence | self-splicing fitness (ln) (30 °C) | self-splicing fitness (ln) (37 °C) |
| --- | --- | --- |
| CCAAAGCAAUAUUACGAGAA | -3.52 ± 0.44 | -3 ± 0.35 |
| CCAAAGCAAUAUUACGAGAC | -3.26 ± 0.24 | -2.31 ± 0.23 |
| CCAAAGCAAUAUUACGAUCU | -2.43 ± 0.14 | -2.97 ± 0.35 |
| CCAAAGCAAUAUUACGCAAU | -4.04 ± 0.24 | -1.46 ± 0.18 |
| CCAAAGCAAUAUUACGCAGU | -3.71 ± 0.21 | -1.64 ± 0.16 |
| CCAAAGCAAUAUUACGCCAU | -3.42 ± 0.17 | -1.88 ± 0.17 |
| CCAAAGCAAUAUUACGCUCU | -3.95 ± 0.27 | -2.95 ± 0.23 |
| CCAAAGCAAUAUUACGCUGC | -3.03 ± 0.17 | -1.8 ± 0.18 |
| CCAAAGCAAUAUUACGCUUA | -3.86 ± 0.24 | -3.12 ± 0.22 |
| CCAAAGCAAUAUUACGGACA | -2.84 ± 0.2 | -2.86 ± 0.25 |
| CCAAAGCAAUAUUACGGCCA | -2.38 ± 0.24 | -2.76 ± 0.33 |
| CCAAAGCAAUAUUACGGCGG | -3.8 ± 0.15 | -2.48 ± 0.16 |
| CCAAAGCAAUAUUACGGGCA | -3.47 ± 0.19 | -2.86 ± 0.2 |
| CCAAAGCAAUAUUACGGGUG | -1.01 ± 0.053 | -0.233 ± 0.085 |
| CCAAAGCAAUAUUACGGUAG | -1.99 ± 0.056 | -0.962 ± 0.066 |
| CCAAAGCAAUAUUACGGUUU | -3.21 ± 0.12 | -2.34 ± 0.15 |
| CCAAAGCAAUAUUACGUAUG | -0.512 ± 0.059 | -0.574 ± 0.093 |
| CCAAAGCAAUAUUACGUCGG | -3.29 ± 0.18 | -2.23 ± 0.2 |
| CCAAAGCAAUAUUACGUCUA | -3.06 ± 0.23 | -2.06 ± 0.21 |
| CCAAAGCAAUAUUACGUGCA | -2.81 ± 0.18 | -2.9 ± 0.23 |
| CCAAAGCAAUAUUACGUUCA | -2.59 ± 0.17 | -3.38 ± 0.33 |
| CCAAAGCAAUAUUACGUUGC | -3.4 ± 0.15 | -2.12 ± 0.17 |
| CCAAAGCAAUAUUACGUUUU | -3.91 ± 0.14 | -2.75 ± 0.17 |
| CCACAGCAAUAUUACGAACA | -2.78 ± 0.24 | -2.33 ± 0.29 |
| CCACAGCAAUAUUACGAAUA | -2.57 ± 0.15 | -2.59 ± 0.19 |

| Sequence | self-splicing fitness (ln) (30 °C) | self-splicing fitness (ln) (37 °C) |
| --- | --- | --- |
| CCACAGCAAUAUUACGAAUC | -2.71 ± 0.18 | -2.3 ± 0.3 |
| CCACAGCAAUAUUACGAAUU | -3.64 ± 0.18 | -2.39 ± 0.17 |
| CCACAGCAAUAUUACGACCG | -0.115 ± 0.064 | -0.00245 ± 0.083 |
| CCACAGCAAUAUUACGACUA | -3.08 ± 0.25 | -2.88 ± 0.29 |
| CCACAGCAAUAUUACGAUAU | -3.48 ± 0.2 | -2.01 ± 0.15 |
| CCACAGCAAUAUUACGCAAC | -2.45 ± 0.36 | -1.79 ± 0.33 |
| CCACAGCAAUAUUACGCAUG | -1.64 ± 0.073 | -0.648 ± 0.067 |
| CCACAGCAAUAUUACGCUGC | -3.06 ± 0.17 | -2.72 ± 0.28 |
| CCACAGCAAUAUUACGCUUU | -4.05 ± 0.25 | -2.18 ± 0.19 |
| CCACAGCAAUAUUACGGAUG | -1.97 ± 0.082 | -1.19 ± 0.1 |
| CCACAGCAAUAUUACGGAUU | -3.49 ± 0.11 | -3.12 ± 0.15 |
| CCACAGCAAUAUUACGGCAG | -1.16 ± 0.072 | -0.579 ± 0.085 |
| CCACAGCAAUAUUACGGCGU | -3.24 ± 0.21 | -2.75 ± 0.31 |
| CCACAGCAAUAUUACGGGAU | -4.56 ± 0.26 | -2.33 ± 0.15 |
| CCACAGCAAUAUUACGGGGU | -3.71 ± 0.098 | -2.53 ± 0.11 |
| CCACAGCAAUAUUACGGUCC | -2.75 ± 0.32 | -2.32 ± 0.32 |
| CCACAGCAAUAUUACGGUGA | -0.943 ± 0.06 | -0.339 ± 0.062 |
| CCACAGCAAUAUUACGGUGC | -4.03 ± 0.19 | -2.97 ± 0.2 |
| CCACAGCAAUAUUACGGUGU | -2.98 ± 0.12 | -3.03 ± 0.2 |
| CCACAGCAAUAUUACGUCCU | -3.44 ± 0.27 | -1.76 ± 0.19 |
| CCACAGCAAUAUUACGUGCU | -3.61 ± 0.17 | -2.88 ± 0.17 |
| CCACAGCAAUAUUACGUGGU | -4.13 ± 0.14 | -3.65 ± 0.17 |
| CCACAGCAAUAUUACGUUCC | -4.24 ± 0.24 | -2.84 ± 0.27 |
| CCACAGCAAUAUUACGUUUC | -4.16 ± 0.22 | -2.44 ± 0.24 |
| CCAGAGCAAUAUUACGAAGG | -3.47 ± 0.19 | -1.92 ± 0.22 |
